Data taken from paper PMC6555533.

Tested on: MBP-p33C (C-terminal soluble portion of p33 replication protein) (Tomato bushy stunt virus)
Assay: biotin-RNA pull-down, anti-p33 immunoblot
Conditions: EMSA: 10 mM HEPES pH 7.4, 50 mM NaCl, 1 mM DTT, 1 mM EDTA, 5% glycerol, 2.5 mM MgCl2, 0.1 ug tRNA, 2 U RNase inhibitor, 10 ul, 0.1 pmol RNA (EMSA temperature …)

RII(+)
binding signal (% of MBP control): 50
